What was measured:
Experiment in all cases: competition
[1] = target: SARS-COV-2 full-length trimeric spike protein, Alpha (B.1.1.7) (SARS-COV-2)
[2] = target: SARS-COV-2 full-length trimeric spike protein, Beta (B1.351) (SARS-COV-2)
[3] = target: SARS-COV-2 full-length trimeric spike protein, Gamma (P.1) (SARS-COV-2)
[4] = target: SARS-COV-2 full-length trimeric spike protein, Delta (B.1.617.2) (SARS-COV-2)
[5] = target: Trimeric S-protein corresponding to Omicron (B.1.1.529) (SARS-COV-2)

| Binder | IC50 [1] | IC50 [2] | IC50 [3] | IC50 [4] | IC50 [5] |
| --- | --- | --- | --- | --- | --- |
| ACE2-M2-FcKO (Fc fusion) STIEEQAKYFLDYFNVQAEDLFYQSSLASWNYNTNITEENVQNMNNAGDKWSAFLKEQSTYAQRYPLQEIQNLTVKLQLQALQQNGSSVLSEDKSKRLNTILNTMSTIYSTGKVCNPDNPQECLLLEPGLNEIMANSLDYNERLWAWESWRSEVGKQLRPLYEEYVVLKNEMARANHYEDYGDYWRGDYEVNGVDGYDYSRGQLIEDVEHTFEEIKPLYEHLHAYVRAKLMNAYPSYISPIGCLPAHLLGDMWGRFWTNLYSLTVPFGQKPNIDVTDAMVDQAWDAQRIFKEAEKFFVSVGLPNMTQGFWEYSMLTDPGNVQKAVCHPTAWDLGKGDFRILMCTKVTMDDFLTAHREMGRIQYDMAYAAQPFLLRNGANEGFHEAVGEIMSLSAATPKHLKSIGLLSPDFQEDNETEINFLLKQALTIVGTLPFTYMLEKWRWMVFKGEIPKDQWMKKWWEMKREIVGVVEPVPHDETYCDPASLFHVSNDYSFIRYYTRTLYQFQFQEALCQAAKHEGPLHKCDISNSTEAGQKLFNMLRLGKSEPWTLALENVVGAKNMNVRPLLNYFEPLFTWLKDQNKNSFVGWSTDWSPYADQSIKVRISLKSALGDKAYEWNDNEMYLFRSSVAYAMRQYFLKVKNQMILFGEEDVRVANLKPRISFNFFVTAPKNVSDIIPRTEVEKAIRMSRSRINDAFRLNDNSLEFLGIQPTLGPPNQPPVSSGGGGSGGGGSGGGGSEPKSSDKTHTCPPCPAPPVAGPSVFLFPPKPKDTLMISRTPEVTCVVVGVSHEDPEVKFNWYVDGVEVHNAKTKPREEQYNSTYRVVSVLTVLHQDWLNGKEYKCKVSNKQLPSPIEKTISKAKGQPGQPREPQVYTLPPSRDELTKNQVSLTCLVKGFYPSDIAVEWESNGQPENNYKTTPPVLDSDGSFFLYSKLTVDKSRWQQGNVFSCSVMHEALHNHYTQKSLSLSPGK | 4.3 nM | 3.9 nM | 3.6 nM | 3.3 nM | 0.7 nM |
| ACE2-M1-FcKO (Fc fusion) STIEEQAKYFLDKFNHEAEDLFYQSSLASWNYNTNITEENVQNMNNAGDKWSAFLKEQSTYAQMYPLQEIQNLTVKLQLQALQQNGSSVLSEDKSKRLNTILNTMSTIYSTGKVCNPDNPQECLLLEPGLNEIMANSLDYNERLWAWESWRSEVGKQLRPLYEEYVVLKNEMARANHYEDYGDYWRGDYEVNGVDGYDYSRGQLIEDVEHTFEEIKPLYEHLHAYVRAKLMNAYPSYISPIGCLPAHLLGDMWGRFWTNLYSLTVPFGQKPNIDVTDAMVDQAWDAQRIFKEAEKFFVSVGLPNMTQGFWEYSMLTDPGNVQKAVCHPTAWDLGKGDFRILMCTKVTMDDFLTAHREMGRIQYDMAYAAQPFLLRNGANEGFHEAVGEIMSLSAATPKHLKSIGLLSPDFQEDNETEINFLLKQALTIVGTLPFTYMLEKWRWMVFKGEIPKDQWMKKWWEMKREIVGVVEPVPHDETYCDPASLFHVSNDYSFIRYYTRTLYQFQFQEALCQAAKHEGPLHKCDISNSTEAGQKLFNMLRLGKSEPWTLALENVVGAKNMNVRPLLNYFEPLFTWLKDQNKNSFVGWSTDWSPYADQSIKVRISLKSALGDKAYEWNDNEMYLFRSSVAYAMRQYFLKVKNQMILFGEEDVRVANLKPRISFNFFVTAPKNVSDIIPRTEVEKAIRMSRSRINDAFRLNDNSLEFLGIQPTLGPPNQPPVSSGGGGSGGGGSGGGGSEPKSSDKTHTCPPCPAPPVAGPSVFLFPPKPKDTLMISRTPEVTCVVVGVSHEDPEVKFNWYVDGVEVHNAKTKPREEQYNSTYRVVSVLTVLHQDWLNGKEYKCKVSNKQLPSPIEKTISKAKGQPGQPREPQVYTLPPSRDELTKNQVSLTCLVKGFYPSDIAVEWESNGQPENNYKTTPPVLDSDGSFFLYSKLTVDKSRWQQGNVFSCSVMHEALHNHYTQKSLSLSPGK | 6.9 nM | 3.9 nM | 3.8 nM | 1.8 nM | 0.5 nM |
